Results from patent US20130115220A1, “METHOD FOR PREVENTION OR TREATMENT OF METABOLIC SYNDROME” (DAINIPPON SUMITOMO PHARMA CO., LTD., priority 2010, published 2013).

Legend:
3T3-L1 cells = assay: rAIM uptake into 3T3-L1 cells by staining; type: cell-based, mouse
Protocol: Differentiated 3T3-L1 cells (ins/DEX/IBMX stimulation (+)) and undifferentiated 3T3-L1 cells (ins/DEX/IBMX stimulation (−)) were incubated with rAIM (5 μg/ml) for 3 hr, and stained with AIM, PPARγ2, and DAPI. For staining with PPARγ2, a rabbit anti-PPARγ2 polyclonal antibody (Abcam plc) was used.
In addition, 3T3-L1 adipocytes were treated with rAIM for 3 hr, stained with AIM and endosome (FM 1-43FX (Invitrogen Corporation) was used), AIM and lysosome (Lyso Tracker Red DND-99 (Invitrogen Corporation) was used), and observed under a confocal microscope.

3T3-L1 preadipocytes = assay: Differentiation of 3T3-L1 preadipocytes into mature adipocytes, lipid droplet formation by oil-red-O; type: cell-based
Protocol: To examine the function of AIM produced by macrophage that infiltrated into adipose tissue on the surrounding adipocytes, an experiment was performed to load AIM in the culture process for differentiation of 3T3-L1 preadipocytes into mature adipocytes.
As AIM, recombinant AIM protein (rAIM) of mouse was used. rAIM was prepared by culturing human-derived HEK293T cells transfected with a vector expressing mouse AIM (pCAGGS-mAIM-HA plasmid) in a serum-free medium (FreeStyle™ 293 Expression Medium; Invitrogen). rAIM was purified from the culture supernatant thereof using an anti-HA antibody column. In other Reference Examples shown below, AIM used was a similar rAIM protein. AIM was loaded by adding AIM to a culture medium at a concentration of 5 μg/ml.
In addition, differentiation of 3T3-L1 cells was induced as shown in FIG. 13 by first proliferating 3T3-L1 cells by cultivating for 4 days (day(−2)-day 2), after which cultivating in a culture medium containing insulin, dexamethasone (DEX) and isobutylmethylxanthine (IBMX) for 2 days (day 2-day 4) to start differentiation induction stimulation, and further cultivating in a culture medium containing insulin for 2 days (day 4-day 6).
After the differentiation induction stimulation period (day 2-day 6), the cells were continuously cultured in a culture medium free of such differentiation induction stimulation factors. Then, the cells on day 10 day from the start of the differentiation induction stimulation (day 12) were stained with oil-red-O, and the state of differentiation of 3T3-L1 cells into mature adipocytes was observed.

AIM-/- mice [1] = assay: Body weight and fat amount of HFD-fed AIM-/- mice; type: in vivo; settings: AIM-/- mice on HFD, intraperitoneal 300 μg/injection/mouse twice a week, 5 weeks, versus BSA
Protocol: Then, rAIM was intraperitoneally administered twice a week (n=6; 300 μg/injection/mouse) to AIM^−/− mice for 5 weeks while feeding with HFD, and the body weight and adipose tissue amount were measured.

AIM-/- mice [2] = assay: mRNA level of markers in visceral fat tissue by QPCR; type: in vivo, mouse; settings: rAIM administration group relative to BSA group, standardized with GAPDH
Protocol: The mRNA level of adipocyte marker, preadipocyte marker, and lipid droplet formation-related genes in the RNA extracted from visceral fat tissue of the mice of the rAIM administration group and BSA administration group was measured by QPCR. The measurement values were standardized with the measurement values of GAPDH, and shown by an expression level relative to that of the adipose tissue administered with BSA.

FAS [3] = assay: Co-immunoprecipitation of AIM-HA and FLAG-FAS or FAS domains in HEK 293T cells; type: binding; settings: Flag-labeled FAS domains in HEK293T cells stably expressing AIM-HA
Excerpt: In HEK 293T cells, rAIM labeled with HA-tag and FAS labeled with FLAG-tag were co-expressed, and the binding of AIM and FAS was confirmed by co-immunoprecipitation using an anti-Flag antibody or anti-HA antibody.
Then, the AIM binding region in FAS was examined. FAS contains 8 domains of keto acyl synthase (KS), malonyl/acetyl transferase (MAT), dehydrase (DH), central core (CC), enoylreductase (ER), keto reductase (KR), acylcarrier protein (ACP) and thioesterase (TE).
The N-terminal of each domain of FAS was labeled with Flag sequence, and expressed in HEK293T cells where AIM-HA is stably expressed. The binding of AIM-HA and each domain of FAS was confirmed by co-immunoprecipitation using an anti-Flag antibody or anti-HA antibody.
The sequence encoding full-length FAS cDNA (nucleotide: +1-7515) labeled with FLAG-tag was constructed using a part of the cDNA clone provided by Dr. Ohara (Kazusa DNA Research Institute) and some fragments cloned by RT-PCR and pFLAG-CMV2 vector (Sigma).
A cDNA fragment encoding KS, MAT, DH, CC, ER, KR, ACP or TE was prepared by subcloning to pFLAG-CMV2 vector by using full-length FAS cDNA as a template.

FAS [4] = biological target: FAS (Mus musculus, UniProt P19096); assay: FAS activity of adipose tissue of AIM-/- mice after intraadipose topical injection; type: in vivo; design: endogenous in cells; host or cells: 3T3-L1 adipocytes (treated cells, then lysed); settings: AIM-/- mice fed HFD 20 weeks, rAIM injected into adipose 3 hr before, versus BSA
Protocol: The influence of AIM on FAS activity of adipocyte or adipose tissue was examined. FAS activity was measured by the method of Kelley (Kelley et al., Biochem. J., 1986, 235:87-90) with slight modification. 3T3-L1 adipocytes, or lysates of adipose tissue of obese mice was mixed with acetyl-CoA and NADPH (0.2 M […] phosphate buffer [pH 7.0] containing 0.4 mM EDTA), and the mixture was placed in a spectrophotometer cuvette and maintained at 30° C. 20 μl of malonyl-CoA solution (0.2 mM) was added to start an enzyme reaction and decrease of OD was measured at a chart speed 2 cm/min. Based on the results, the enzyme activity of FAS was evaluated using the molar extinction coefficient of […] NADPH as 6220.
First, the FAS activity of 3T3-L1 cells treated for 6 days in the presence or absence of rAIM (5 μg/ml), and in the presence of C75 (25 μM) was measured. Moreover, the FAS activity of adipose tissues of AIM^+/+ mice and AIM^−/− mice and the FAS activity of adipose tissue of AIM^−/− mice administered with rAIM or BSA 3 hr before by intraadipose topical injection are shown in FIGS. 28 and 29, respectively.
All mice were fed with HFD for 20 weeks. The samples were dissolved (lysed) and the FAS activity was measured. The data was converted to that based on FAS protein, according to the results of WB performed using the same sample.

Sequence of FAS (Mus musculus, UniProt P19096) (P19096 whole entry): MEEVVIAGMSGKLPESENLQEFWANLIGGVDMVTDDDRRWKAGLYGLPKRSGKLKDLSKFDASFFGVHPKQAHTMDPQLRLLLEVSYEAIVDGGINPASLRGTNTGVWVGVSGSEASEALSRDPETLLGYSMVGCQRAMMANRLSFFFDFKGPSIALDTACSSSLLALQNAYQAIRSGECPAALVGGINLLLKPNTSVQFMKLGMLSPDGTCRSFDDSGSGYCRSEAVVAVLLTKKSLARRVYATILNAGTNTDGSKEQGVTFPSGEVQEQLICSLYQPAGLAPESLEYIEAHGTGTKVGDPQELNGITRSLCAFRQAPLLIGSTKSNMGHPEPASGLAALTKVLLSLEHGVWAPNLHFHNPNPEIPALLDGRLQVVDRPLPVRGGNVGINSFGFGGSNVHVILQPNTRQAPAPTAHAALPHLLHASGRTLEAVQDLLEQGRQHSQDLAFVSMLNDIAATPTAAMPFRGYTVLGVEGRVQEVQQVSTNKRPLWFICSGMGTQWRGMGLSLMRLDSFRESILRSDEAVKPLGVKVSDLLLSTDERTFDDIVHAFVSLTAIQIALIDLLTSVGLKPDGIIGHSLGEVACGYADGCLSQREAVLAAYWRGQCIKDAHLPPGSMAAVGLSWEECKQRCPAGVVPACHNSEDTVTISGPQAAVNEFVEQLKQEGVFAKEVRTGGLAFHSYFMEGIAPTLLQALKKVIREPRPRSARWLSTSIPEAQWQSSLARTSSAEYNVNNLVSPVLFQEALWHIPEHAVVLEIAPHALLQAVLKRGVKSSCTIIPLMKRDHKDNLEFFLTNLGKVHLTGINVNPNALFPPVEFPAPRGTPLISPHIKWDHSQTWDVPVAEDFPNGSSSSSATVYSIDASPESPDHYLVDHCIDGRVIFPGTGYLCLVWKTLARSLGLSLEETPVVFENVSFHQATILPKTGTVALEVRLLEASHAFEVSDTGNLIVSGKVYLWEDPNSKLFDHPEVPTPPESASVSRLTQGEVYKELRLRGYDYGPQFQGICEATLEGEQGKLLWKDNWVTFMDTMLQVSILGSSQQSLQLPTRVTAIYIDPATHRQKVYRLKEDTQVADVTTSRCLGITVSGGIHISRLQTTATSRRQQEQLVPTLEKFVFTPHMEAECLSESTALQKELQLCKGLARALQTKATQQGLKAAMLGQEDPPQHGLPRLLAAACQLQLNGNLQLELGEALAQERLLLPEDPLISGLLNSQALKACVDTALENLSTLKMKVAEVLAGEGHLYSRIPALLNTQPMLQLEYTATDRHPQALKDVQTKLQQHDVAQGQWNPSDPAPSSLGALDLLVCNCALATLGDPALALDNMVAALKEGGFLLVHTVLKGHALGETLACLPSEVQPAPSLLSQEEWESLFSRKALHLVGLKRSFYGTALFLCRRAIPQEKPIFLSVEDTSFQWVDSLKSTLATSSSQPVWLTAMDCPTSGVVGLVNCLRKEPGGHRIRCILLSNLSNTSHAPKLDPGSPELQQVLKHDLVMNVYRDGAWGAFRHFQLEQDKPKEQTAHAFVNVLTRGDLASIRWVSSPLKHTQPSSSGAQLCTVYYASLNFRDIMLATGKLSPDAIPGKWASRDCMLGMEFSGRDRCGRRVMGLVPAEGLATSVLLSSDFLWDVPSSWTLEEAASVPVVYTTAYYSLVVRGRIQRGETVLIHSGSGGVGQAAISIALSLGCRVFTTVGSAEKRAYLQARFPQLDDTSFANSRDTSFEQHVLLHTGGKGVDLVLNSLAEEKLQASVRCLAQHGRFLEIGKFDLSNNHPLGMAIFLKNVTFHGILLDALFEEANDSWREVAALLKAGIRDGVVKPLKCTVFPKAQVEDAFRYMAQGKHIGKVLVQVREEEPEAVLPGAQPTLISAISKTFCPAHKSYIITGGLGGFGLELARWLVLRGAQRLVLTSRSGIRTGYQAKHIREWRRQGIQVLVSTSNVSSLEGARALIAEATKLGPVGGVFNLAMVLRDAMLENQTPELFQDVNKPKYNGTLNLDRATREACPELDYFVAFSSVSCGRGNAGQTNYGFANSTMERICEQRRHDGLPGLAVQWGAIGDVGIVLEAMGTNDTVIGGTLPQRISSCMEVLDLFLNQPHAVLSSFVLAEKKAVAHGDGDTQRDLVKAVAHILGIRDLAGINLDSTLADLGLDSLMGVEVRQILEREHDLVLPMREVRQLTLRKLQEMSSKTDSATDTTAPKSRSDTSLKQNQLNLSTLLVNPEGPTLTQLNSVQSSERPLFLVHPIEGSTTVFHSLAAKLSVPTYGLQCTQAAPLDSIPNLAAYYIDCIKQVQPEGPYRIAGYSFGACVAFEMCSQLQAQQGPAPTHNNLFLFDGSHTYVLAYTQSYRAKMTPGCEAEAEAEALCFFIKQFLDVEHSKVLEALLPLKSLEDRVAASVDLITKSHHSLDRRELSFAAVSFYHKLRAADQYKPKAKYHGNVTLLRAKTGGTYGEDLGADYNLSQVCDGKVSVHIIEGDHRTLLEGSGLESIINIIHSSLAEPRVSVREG

B1: rAIM: recombinant AIM protein (rAIM) of mouse, HA-tagged, prepared in HEK293T cells (protein)
chain: ESPTKVQLVGGAHRCEGRVEVEHNGQWGTVCDDGWDRRDVAVVCRELNCGAVIQTPRGASYQPPASEQRVLIQGVDCNGTEDTLAQCELNYYVFDCSHEEDAGAQCENPDSDLLFIPEDVRLVDGPGHCQGRVEVLHQSQWSTVCKAGWNLQVSKVVCRQLGCGRALLTYGSCNKNTQGKGPIWMGKMSCSGQEANLRSCLLSRLENNCTHGEDTWMECEDPFELKLVGGDTPCSGRLEVLHKGSWGSVCDDNWGEKEDQVVCKQLGCGKSLHPSPKTRKIYGPGAGRIWLDDVNCSGKEQSLEFCRHRLWGYHDCTHKEDVEVICTDFDV
modifications: left off: small tags and cut ends
notes: recombinant AIM protein (rAIM) of mouse, HA-tagged, prepared in HEK293T cells
3T3-L1 cells; 3T3-L1 adipocytes, rAIM 3 hr, confocal microscope
  intracellular localization of incorporated rAIM (endosome, lysosome staining): co-localized with endosome
3T3-L1 cells; cells showing low expression of PPARγ2, rAIM 5 μg/ml, 3 hr
  rAIM uptake efficiency: markedly low
3T3-L1 cells; mature adipocytes highly expressing PPARγ2, rAIM 5 μg/ml, 3 hr
  rAIM uptake (cells containing rAIM per 100 cells): efficient rAIM uptake
3T3-L1 cells; preadipocytes free of differentiation induction stimulation, rAIM 5 μg/ml, 3 hr
  rAIM uptake: no rAIM uptake
3T3-L1 preadipocytes; AIM concentration decreased to 1 μg/ml and 0.1 μg/ml
  differentiation suppressive effect: decreased
3T3-L1 preadipocytes; AIM continuously loaded day(-2)-day 12
  differentiation of 3T3-L1 cells into adipocytes: completely suppressed
3T3-L1 preadipocytes; AIM loading on 3T3-L1 cells
  number of dead cells: did not increase
3T3-L1 preadipocytes; schedule B, AIM 5 μg/ml loaded day 2-day 12
  differentiation of 3T3-L1 cells (cells having lipid droplet, oil-red-O, day 12): nearly completely suppressed
3T3-L1 preadipocytes; schedule C, AIM 5 μg/ml loaded only day 2-day 4
  differentiation of 3T3-L1 cells (cells having lipid droplet, oil-red-O, day 12): nearly completely suppressed
3T3-L1 preadipocytes; schedule D, AIM loaded only before differentiation induction, day(-2)-day 2
  differentiation of 3T3-L1 cells into mature adipocytes: not suppressed
AIM-/- mice [1]
  increase in body weight: significantly small increase
  increase in subcutaneous fat: significantly small increase
  increase in visceral fat: significantly small increase
AIM-/- mice [2]
  mRNA level of Adipophilin in visceral fat: low
  mRNA level of FSP27 in visceral fat: low
  mRNA level of PREF-1 in visceral fat: increased
  mRNA level of Perilipin in visceral fat: low
  mRNA of C/EBPα in visceral fat: did not show difference
  mRNA of GLUT4 in visceral fat: did not show difference
  mRNA of PPARγ2 in visceral fat: did not show difference
FAS [3]
  FAS domains bound to AIM: ER, DH, TE and CC
FAS [4]
  FAS activity in adipose tissue: decreased
